Columns and labels:
[1] = biological target: T1, SARS-CoV two-proline stabilized S trimer (S-2P) (SARS-CoV (GenBank NC_004718.3), UniProt P59594, stabilised); assay: SPR; conditions: both partners purified
T1 construct: also called SARS-CoV S-2P

[2] = biological target: T1, SARS-CoV two-proline stabilized S …; assay: SPR; conditions: both partners purified; remark: listed apart in the source

B1: 6D6 monoclonal antibody (antibody, V domains shown)
VH: EVQLQQSGAELVKPGASVKLSCTTSGFNIIDTYMHWVKQRPEEGLEWIGGIDPVNGNSEYDPKFQDKATITADTSSNTAYLHLSRLTSEDTAVYYCASAHYYGSSSSFPYWGQGTLVTVSA
VL: DIVMTQSQKFMSTSVGDRVSVTCKASQNVGTHVAWYQQKPGQSPKALIYSASYRYSGVPDRFTGSGVGTDFTLTITNVQSEDLAEYFCQQYNSYFTFGSGTKLEIK
notes: also called mAb 6D6; source: mouse hybridoma, ascites, purified (protein A agarose); copies: 2 + 2
B1 gave a Kd [1] of 2.14 nM, a koff [1] of 5.56e-05 s⁻¹ and a kon [1] of 30600 M⁻¹ s⁻¹.

B2: 7D6 monoclonal antibody (antibody, V domains shown)
VH: EVQLQQSGAELVRPGASVKLSCTASGFNIKDTYIHWVKQRPEQGLEWIGRIDPGDGDTEYDPSFQGKATITADTSSNTAYLELSSLTSEDTAVYYCTRFYDYVDYGMDYWGQGTSVTVSS
VL: DIQMTQSPASLSASVGETVTITCRASGNIHNYLAWYQQKQGKSPQLLVYNAKTLADGVPSRFSGSGSGTQYSLKINSLQPEDFGSYYCQHFWSTPPWTFGGGTKLEVK
notes: also called mAb 7D6; source: mouse hybridoma, ascites, purified (protein A agarose); copies: 2 + 2
Binder B2 has a Kd [1] of 5.04 nM, a koff [1] of 0.000241 s⁻¹ and a kon [1] of 47800 M⁻¹ s⁻¹. It also gave a Kd [2] of 5.88 nM.

Source: article PMC8476643 (Nature Communications, 2021)
